# Test results reported in patent US20260365708 (published 2026).
# Changes are numbered by the printed parent chain. In names and notes the source's numbering stands.
# T1: mIL10RalphaFc (mouse, UniProt Q61727)
# T1 chain: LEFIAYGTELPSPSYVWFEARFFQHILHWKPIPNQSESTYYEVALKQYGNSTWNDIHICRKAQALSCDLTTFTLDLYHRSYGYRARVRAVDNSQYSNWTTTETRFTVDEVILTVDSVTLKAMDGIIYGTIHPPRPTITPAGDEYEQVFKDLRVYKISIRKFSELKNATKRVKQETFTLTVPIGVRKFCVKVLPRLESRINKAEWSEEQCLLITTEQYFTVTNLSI
# T2: hIL10RalphaFc (human, UniProt Q13651)
# T2 chain: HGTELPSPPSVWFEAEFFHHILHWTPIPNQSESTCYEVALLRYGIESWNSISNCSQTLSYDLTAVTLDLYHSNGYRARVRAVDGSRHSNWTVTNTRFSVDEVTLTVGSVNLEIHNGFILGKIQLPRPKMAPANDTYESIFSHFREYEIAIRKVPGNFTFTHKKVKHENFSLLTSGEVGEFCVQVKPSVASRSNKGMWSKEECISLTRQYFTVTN
# B1: WC163_AA (mIL10 WT fused) (protein)
# chain: GNCTHFPVGQSHMLLELRTAFSQVKTFFQTKDQLDNILLTDSLMQDFKGYLGCQALSEMIQFYLVEVMPQAEKHGPEIKEHLNSLGEKLKTLRMRLRRCHRFLPCENKSKAVEQVKSDFNKLQDQGVYKAMNEFDIFINCIEAYMMIKMKSSRGQYSREDNQYSREDNSCTHFPVGQSHMLLELRTAFSQVKTFFQTKDQLDNILLTDSLMQDFKGYLGCQALSEMIQFYLVEVMPQAEKHGPEIKEHLNSLGEKLKTLRMRLRRCHRFLPCENKSKAVEQVKSDFNKLQDQGVYKAMNEFDIFINCIEAYMMIKMKS
# B2: mIL10 WT (protein)
# chain: SRGQYSREDNNCTHFPVGQSHMLLELRTAFSQVKTFFQTKDQLDNILLTDSLMQDFKGYLGCQALSEMIQFYLVEVMPQAEKHGPEIKEHLNSLGEKLKTLRMRLRRCHRFLPCENKSKAVEQVKSDFNKLQDQGVYKAMNEFDIFINCIEAYMMIKMKS
# B3: mIL10 T100L (protein)
# chain: B2 chain with T100L
# B4: SS0051_AA (mIL10 T100L fused) (protein)
# chain: B1 chain with T91L, T258L
# B5: h_SS0053_AA (hIL10 T100L fused) (protein)
# chain: SPGQGTQSENSCTHFPGNLPNMLRDLRDAFSRVKTFFQMKDQLDNLLLKESLLEDFKGYLGCQALSEMIQFYLEEVMPQAENQDPDIKAHVNSLGENLKLLRLRLRRCHRFLPCENKSKAVEQVKNAFNKLQEKGIYKAMSEFDIFINYIEAYMTMKIRNSPGQGTQSENSCTHFPGNLPNMLRDLRDAFSRVKTFFQMKDQLDNLLLKESLLEDFKGYLGCQALSEMIQFYLEEVMPQAENQDPDIKAHVNSLGENLKLLRLRLRRCHRFLPCENKSKAVEQVKNAFNKLQEKGIYKAMSEFDIFINYIEAYMTMKIRNGGSHHHHHHHH
# B6: hIL10 T100L (protein)
# chain: SPGQGTQSENSCTHFPGNLPNMLRDLRDAFSRVKTFFQMKDQLDNLLLKESLLEDFKGYLGCQALSEMIQFYLEEVMPQAENQDPDIKAHVNSLGENLKLLRLRLRRCHRFLPCENKSKAVEQVKNAFNKLQEKGIYKAMSEFDIFINYIEAYMTMKIRN
# B7: hIL10 WT (protein)
# chain: B6 chain with L100T
# B8: h_SS0052_AA (hIL10 WT fused) (protein)
# chain: SPGQGTQSENSCTHFPGNLPNMLRDLRDAFSRVKTFFQMKDQLDNLLLKESLLEDFKGYLGCQALSEMIQFYLEEVMPQAENQDPDIKAHVNSLGENLKTLRLRLRRCHRFLPCENKSKAVEQVKNAFNKLQEKGIYKAMSEFDIFINYIEAYMTMKIRNSPGQGTQSENSCTHFPGNLPNMLRDLRDAFSRVKTFFQMKDQLDNLLLKESLLEDFKGYLGCQALSEMIQFYLEEVMPQAENQDPDIKAHVNSLGENLKTLRLRLRRCHRFLPCENKSKAVEQVKNAFNKLQEKGIYKAMSEFDIFINYIEAYMTMKIRN
# Biological target: T1, mIL10RalphaFc
# Assay: SPR
row,Binder,Kd [pM]
1,B1,860
2,B2,810
3,B3,1920
4,B4,730

# Biological target: T2, hIL10RalphaFc
# Assay: SPR
row,Binder,Kd [pM]
1,B5,70
2,B6,260
3,B7,60
4,B8,110
